From article PMC5068739 (PLoS ONE, 2016) come the findings set out here.

In one assay the target is T1, AtPYL6 (with TaABI1) (Arabidopsis thaliana, UniProt Q8S8E3).
T1 construct: gene PYL6; recombinant from E. coli, Ni-NTA enriched; the partner PP2C is from wheat; with Protein phosphatase 2C ABI1 (Triticum aestivum)
T1 sequence (Q8S8E3 1-215): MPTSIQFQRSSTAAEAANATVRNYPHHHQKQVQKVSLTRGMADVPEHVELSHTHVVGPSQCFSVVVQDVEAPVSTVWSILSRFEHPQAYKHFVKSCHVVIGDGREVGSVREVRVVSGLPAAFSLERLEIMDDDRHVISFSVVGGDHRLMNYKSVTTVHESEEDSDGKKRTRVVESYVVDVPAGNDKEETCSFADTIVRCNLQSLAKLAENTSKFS
T1 sequence (A5A6P8 1-479 partner): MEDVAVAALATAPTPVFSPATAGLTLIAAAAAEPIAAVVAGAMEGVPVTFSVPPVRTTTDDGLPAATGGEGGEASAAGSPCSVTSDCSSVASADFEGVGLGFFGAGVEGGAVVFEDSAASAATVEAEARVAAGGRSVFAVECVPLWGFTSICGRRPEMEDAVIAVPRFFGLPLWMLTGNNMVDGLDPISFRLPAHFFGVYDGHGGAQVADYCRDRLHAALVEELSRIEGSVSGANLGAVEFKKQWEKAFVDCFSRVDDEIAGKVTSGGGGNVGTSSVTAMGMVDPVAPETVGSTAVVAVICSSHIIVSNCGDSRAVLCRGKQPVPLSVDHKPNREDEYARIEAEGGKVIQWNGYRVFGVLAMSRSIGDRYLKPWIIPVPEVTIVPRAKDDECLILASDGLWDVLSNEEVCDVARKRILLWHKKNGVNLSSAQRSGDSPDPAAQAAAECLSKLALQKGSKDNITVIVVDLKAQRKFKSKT
The assay can be described thus: receptor-mediated PP2C inhibition, 4-methylumbelliferyl phosphate fluorescence. The class given is biochemical. Conditions: ligand 0.1 uM unless otherwise noted, Mn2+, pH 7.9, 30 °C.

The target of assay [1] is T2, Bradi1g37810 (with Bradi2g41950) (Brachypodium distachyon, UniProt I1GXY5).
T2 construct: gene LOC100840898; recombinant from E. coli, Ni-NTA enriched; receptor 196 residues; with Protein phosphatase 2C
T2 sequence (I1GXY5 1-196): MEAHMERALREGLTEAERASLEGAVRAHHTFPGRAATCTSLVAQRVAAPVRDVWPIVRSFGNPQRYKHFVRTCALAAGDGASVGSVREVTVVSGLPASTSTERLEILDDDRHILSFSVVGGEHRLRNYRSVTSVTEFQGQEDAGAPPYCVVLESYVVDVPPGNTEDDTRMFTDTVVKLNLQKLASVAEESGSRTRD
Described as above. Format: biochemical. To be noted: ligand 0.1 uM unless otherwise noted, Mn2+, pH 7.9, 30 °C, n = 1 screen.

The target in assay [2] is Bradi2g41950 (B. distachyon).
Assay [3] addresses TaABI1 (wheat).
The next assay addresses AtABI1 (A. thaliana) (UniProt P49597).
Assay [4] has as its target TaABI1 (wheat). This is another data set of the same source.

Chain of AtABI1 (A. thaliana) (P49597 whole entry): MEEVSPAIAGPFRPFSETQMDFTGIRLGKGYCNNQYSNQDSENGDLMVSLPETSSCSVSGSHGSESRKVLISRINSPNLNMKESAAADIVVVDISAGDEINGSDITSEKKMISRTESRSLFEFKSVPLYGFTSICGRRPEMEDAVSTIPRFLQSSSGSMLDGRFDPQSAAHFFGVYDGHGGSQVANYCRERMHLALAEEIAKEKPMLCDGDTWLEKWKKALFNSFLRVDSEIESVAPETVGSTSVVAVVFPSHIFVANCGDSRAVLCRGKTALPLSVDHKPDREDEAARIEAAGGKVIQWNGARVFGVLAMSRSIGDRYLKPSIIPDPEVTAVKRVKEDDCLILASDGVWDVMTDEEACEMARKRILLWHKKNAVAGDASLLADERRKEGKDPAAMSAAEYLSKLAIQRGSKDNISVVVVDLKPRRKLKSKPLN

For the compound `CO[C@]1(/C=C/C(C)=C\C(=O)O)C(C)=CC(=O)CC1(C)C` [PBI352], the “% inhibition of PP2C” value was “the three A. thaliana receptors against the Ta_ABI1 PP2C were plotted” on AtPYL6 (with TaABI1) and “subfamily III receptor Bd1g37810 is similar to that of the subfamily II, Ta_PYL2DS_FL” in assay [1].

In assay [2], Bradi2g32250 (receptor) registered a Bradi2g41950 phosphatase activity with receptor and PBI352 (Figure C in S2 File; n = 1) (% inhibition of PP2C) of 90.

With Bradi3g09580 (receptor), the Bradi2g41950 phosphatase activity with receptor and PBI352 (Figure C in S2 File; n = 1) (% inhibition of PP2C) in assay [2] is 90.

Ta_PYL2DS_FL (receptor) registered a TaABI1 phosphatase activity (4-methylumbelliferyl phosphate) with the receptor, on addition of ABA (Figure B in S2 File) (% reduction of phosphatase activity) in the assay with TaABI1 (wheat) [3] of 90. For the same compound, the PP2C phosphatase activity, receptor to PP2C 10:1, with 0.1 uM PBI352 (Fig 2B) (% decrease in PP2C activity) with AtABI1 (A. thaliana) and with TaABI1 (wheat) [4] was 30 each time. Also, the PP2C phosphatase activity, receptor to PP2C 10:1, with 0.1 uM PBI354 (Fig 2C) (% decrease in PP2C activity) with AtABI1 (A. thaliana) and with TaABI1 (wheat) [4] was 0 throughout.
